Test results from patent US5593867, “Fluorerscence polarization detection of nucleic acid amplication” (Becton, Dickinson and Company).

How the values were obtained:
EcoRI (Gln 111) = EcoRI (Gln 111) (UniProt P00642 P00642:2-277, Gln111 (cleavage-deficient; parent residue not stated)); assay: FP; no enhancement of FP change without recognition site; EDTA buffer, 37 C; settings: chain copies: 2
EcoRI = EcoRI (UniProt P00642 P00642:2-277); assay: as above; settings: tags: New England BioLabs; chain copies: 2

B1: SEQ7/SEQ9 duplex lacking EcoRI site (dsDNA)
DNA 1: ATCCGTATGGTGGATAACGTCTTTCA
DNA 2: TGAAAGACGTTATCCACCATACGGAT
- binding result (EcoRI (Gln 111)): no binding
- binding result (EcoRI): no binding
